Format in all cases: binding
Assay [1] addresses H3K9me3 peptide (1–17). Briefly: ITC, H3K9me3 peptide (1-17) titrated into UHRF1 proteins. The protocol: (§1) For competition ITC experiments: the indicated proteins were pre-incubated with competitive peptide, protein or hm-DNA (at 1:2 molar ratio if not specified) for 10 min followed by ITC measurements as described above. Proteins, DNA and peptides were prepared within ITC buffer containing 10 mM HEPES, pH 8.0, 100 mM NaCl. The data were fitted by software Origin 7.0. All ITC results were summarized in Supplementary Table 2 and raw data were shown in Supplementary Fig. 9.

For assay [2], the target named is T1, TTD (residues 134–285) of UHRF1 (Homo sapiens, UniProt Q96T88).
T1 construct: TTD (residues 134–285); GST (N, cleaved yes); made in house; host or cells: E. coli BL21 (DE3)
T1 sequence (Q96T88 134-285): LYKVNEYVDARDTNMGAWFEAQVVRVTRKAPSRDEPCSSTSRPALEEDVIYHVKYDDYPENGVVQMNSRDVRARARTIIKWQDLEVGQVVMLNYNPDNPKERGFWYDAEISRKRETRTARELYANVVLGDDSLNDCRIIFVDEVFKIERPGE
Kind of assay: ITC, TTD titrated into Spacer variants and other UHRF1 fragments. To be noted: TTD in syringe. The protocol:
as §1

The target in assay [3] is hm-DNA (12 bp). Kind of assay: ITC, hm-DNA titrated into UHRF1 domains. To be noted: 18 °C, 12-bp hm-DNA in syringe, named protein in cell, 10 mM HEPES pH 8.0, 100 mM NaCl. The protocol: as §1
Assay [4] deals with T2, Spacer (residues 587–674) of UHRF1 (Homo sapiens, UniProt Q96T88).
T2 construct: Spacer (residues 587–674); GST (N, cleaved yes); made in house; host or cells: E. coli BL21 (DE3)
T2 sequence (Q96T88 587-674): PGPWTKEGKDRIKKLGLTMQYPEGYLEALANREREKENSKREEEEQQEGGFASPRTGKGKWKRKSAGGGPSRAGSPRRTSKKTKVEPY
Kind of assay: ITC, interaction of UHRF1 domains with the Spacer. As to the method:
as §1

Where [5] appears, read: ITC, 18 °C, named protein 0.05 mM in cell, H3K9me3 (1-17) 0.5 mM in syringe, 10 mM HEPES pH 8.0, 100 mM NaCl, read-out: KD.

Where two headings read alike, the source gives them in different places.

B1: Spacer: C-terminal spacer region of human UHRF1 (residues 587–674) (protein)
chain: PGPWTKEGKDRIKKLGLTMQYPEGYLEALANREREKENSKREEEEQQEGGFASPRTGKGKWKRKSAGGGPSRAGSPRRTSKKTKVEPY
modifications: left off: GST, end not stated, cleaved
For B1, the Kd in assay [1] (competition ITC, molar ratio TTD–PHD/Spacer=1:2, read-out: KD of H3K9me3 for TTD–PHD in the presence of the Spacer) was found to be 1630 ± 80 nM. The same molecule registered a N in assay [2] (ITC stoichiometry) of 0.95±0.00786. Also, in assay [2] (ITC), the ΔH is -1.13 E4±116.7 cal/mol and the ΔS is -12.3 cal/mol/deg. Further, the KD result in assay [3] is listed as “no interaction”.

B2: TTD–PHD: human UHRF1 residues 134–366 (protein)
chain: LYKVNEYVDARDTNMGAWFEAQVVRVTRKAPSRDEPCSSTSRPALEEDVIYHVKYDDYPENGVVQMNSRDVRARARTIIKWQDLEVGQVVMLNYNPDNPKERGFWYDAEISRKRETRTARELYANVVLGDDSLNDCRIIFVDEVFKIERPGEGSPMVDNPMRRKSGPSCKHCKDDVNRLCRVCACHLCGGRQDPDKQLMCDECDMAFHIYCLDPPLSSVPSEDEWYCPECRND
modifications: left off: GST, end not stated, cleaved
B2 came in with a N in assay [4] (ITC stoichiometry, Spacer in syringe) of 0.887±0.0379. Also, binding in assay [4] (ITC, 18 °C, Spacer in syringe, named protein in cell, 10 mM HEPES pH 8.0, 100 mM NaCl) was characterised by a dissociation constant (Kd) of 10.7 µM. Besides, in assay [4] (ITC, Spacer in syringe), the ΔH is -6561 ± 411.6 cal/mol and the ΔS was 0.285 cal/mol/deg. For the same molecule, the “interaction between the Spacer and the named protein in the presence of H3K9me3” value in assay [4] (ITC, molar ratio of TTD-PHD or TTD: H3K9me3=1:2) is listed as “No detectable interaction”. Further, in assay [1] (ITC KD ratio), the “fold higher binding affinity to H3K9me3 peptide than full-length UHRF1” value was around 31 fold. In addition, the Kd in assay [1] (setting [5]) was determined as 150 nM.

B3: UHRF1D334A: UHRF1 mutant D334A, which abolishes H3R2-binding affinity of the PHD (protein)
chain: MWIQVRTMDGRQTHTVDSLSRLTKVEELRRKIQELFHVEPGLQRLFYRGKQMEDGHTLFDYEVRLNDTIQLLVRQSLVLPHSTKERDSELSDTDSGCCLGQSESDKSSTHGEAAAETDSRPADEDMWDETELGLYKVNEYVDARDTNMGAWFEAQVVRVTRKAPSRDEPCSSTSRPALEEDVIYHVKYDDYPENGVVQMNSRDVRARARTIIKWQDLEVGQVVMLNYNPDNPKERGFWYDAEISRKRETRTARELYANVVLGDDSLNDCRIIFVDEVFKIERPGEGSPMVDNPMRRKSGPSCKHCKDDVNRLCRVCACHLCGGRQDPDKQLMCAECDMAFHIYCLDPPLSSVPSEDEWYCPECRNDASEVVLAGERLRESKKKAKMASATSSSQRDWGKGMACVGRTKECTIVPSNHYGPIPGIPVGTMWRFRVQVSESGVHRPHVAGIHGRSNDGAYSLVLAGGYEDDVDHGNFFTYTGSGGRDLSGNKRTAEQSCDQKLTNTNRALALNCFAPINDQEGAEAKDWRSGKPVRVVRNVKGGKNSKYAPAEGNRYDGIYKVVKYWPEKGKSGFLVWRYLLRRDDDEPGPWTKEGKDRIKKLGLTMQYPEGYLEALANREREKENSKREEEEQQEGGFASPRTGKGKWKRKSAGGGPSRAGSPRRTSKKTKVEPYSLTAQQSSLIREDKSNAKLWNEVLASLKDRPASGSPFQLFLSKVEETFQCICCQELVFRPITTVCQHNVCKDCLDRSFRAQVFSCPACRYDLGRSYAMQVNQPLQTVLNQLFPGYGNGR
modifications: left off: GST, end not stated, cleaved
Turning to B3, the KD result in assay [1] (ITC, 18 °C, named protein 0.05 mM in cell, H3K9me3 (1-17) 0.5 mM in syringe, 10 mM HEPES pH 8.0, 100 mM NaCl) was “undetectable”.

B4: R295D/R296D mutant of full-length UHRF1: full-length UHRF1 with Linker mutation R295D/R296D (protein)
chain: MWIQVRTMDGRQTHTVDSLSRLTKVEELRRKIQELFHVEPGLQRLFYRGKQMEDGHTLFDYEVRLNDTIQLLVRQSLVLPHSTKERDSELSDTDSGCCLGQSESDKSSTHGEAAAETDSRPADEDMWDETELGLYKVNEYVDARDTNMGAWFEAQVVRVTRKAPSRDEPCSSTSRPALEEDVIYHVKYDDYPENGVVQMNSRDVRARARTIIKWQDLEVGQVVMLNYNPDNPKERGFWYDAEISRKRETRTARELYANVVLGDDSLNDCRIIFVDEVFKIERPGEGSPMVDNPMDDKSGPSCKHCKDDVNRLCRVCACHLCGGRQDPDKQLMCDECDMAFHIYCLDPPLSSVPSEDEWYCPECRNDASEVVLAGERLRESKKKAKMASATSSSQRDWGKGMACVGRTKECTIVPSNHYGPIPGIPVGTMWRFRVQVSESGVHRPHVAGIHGRSNDGAYSLVLAGGYEDDVDHGNFFTYTGSGGRDLSGNKRTAEQSCDQKLTNTNRALALNCFAPINDQEGAEAKDWRSGKPVRVVRNVKGGKNSKYAPAEGNRYDGIYKVVKYWPEKGKSGFLVWRYLLRRDDDEPGPWTKEGKDRIKKLGLTMQYPEGYLEALANREREKENSKREEEEQQEGGFASPRTGKGKWKRKSAGGGPSRAGSPRRTSKKTKVEPYSLTAQQSSLIREDKSNAKLWNEVLASLKDRPASGSPFQLFLSKVEETFQCICCQELVFRPITTVCQHNVCKDCLDRSFRAQVFSCPACRYDLGRSYAMQVNQPLQTVLNQLFPGYGNGR
modifications: left off: GST, end not stated, cleaved
In the case of B4, the “fold lower binding affinity to H3K9me3 than wild type UHRF1” value in assay [1] (ITC, Supplementary Fig. 4g) was “eight”.

B5: UHRF1D334A&∆627-674: UHRF1 with mutation D334A and deletion of residues 627–674 (protein)
chain: MWIQVRTMDGRQTHTVDSLSRLTKVEELRRKIQELFHVEPGLQRLFYRGKQMEDGHTLFDYEVRLNDTIQLLVRQSLVLPHSTKERDSELSDTDSGCCLGQSESDKSSTHGEAAAETDSRPADEDMWDETELGLYKVNEYVDARDTNMGAWFEAQVVRVTRKAPSRDEPCSSTSRPALEEDVIYHVKYDDYPENGVVQMNSRDVRARARTIIKWQDLEVGQVVMLNYNPDNPKERGFWYDAEISRKRETRTARELYANVVLGDDSLNDCRIIFVDEVFKIERPGEGSPMVDNPMRRKSGPSCKHCKDDVNRLCRVCACHLCGGRQDPDKQLMCAECDMAFHIYCLDPPLSSVPSEDEWYCPECRNDASEVVLAGERLRESKKKAKMASATSSSQRDWGKGMACVGRTKECTIVPSNHYGPIPGIPVGTMWRFRVQVSESGVHRPHVAGIHGRSNDGAYSLVLAGGYEDDVDHGNFFTYTGSGGRDLSGNKRTAEQSCDQKLTNTNRALALNCFAPINDQEGAEAKDWRSGKPVRVVRNVKGGKNSKYAPAEGNRYDGIYKVVKYWPEKGKSGFLVWRYLLRRDDDEPGPWTKEGKDRIKKLGLTMQYPEGYLEALANREREKENSKSLTAQQSSLIREDKSNAKLWNEVLASLKDRPASGSPFQLFLSKVEETFQCICCQELVFRPITTVCQHNVCKDCLDRSFRAQVFSCPACRYDLGRSYAMQVNQPLQTVLNQLFPGYGNGR
modifications: left off: GST, end not stated, cleaved
On to B5, for which, in assay [1] (setting [5]), the dissociation constant Kd was 8690 nM.

Source of the values: publication PMC4822050, “Hemi-methylated DNA opens a closed conformation of UHRF1 to facilitate its histone recognition” (Nature Communications, 2016).
